Where a chain is given by its changes, count along the chain named. Numbered stars: 1 amine (or outer) side, 2 acyl side, 3 side chain; on linkers, the order of the positions; unused ones are H or OH. Square brackets hold non-standard residues; d marks the D form. Side chains are listed from the residue outwards. Ends that are not written are not given here. * marks the point of attachment. C20 diacid = O=C(O)CCCCCCCCCCCCCCCCCCC(=O)*; αMePhe(2-F) = C[C@](N)(Cc1ccccc1F)C(=O)O; γGlu = O=C(O)[C@H](CCC(=O)[*:2])N[*:1]; Desaminohistidyl = O=C(CCc1c[nH]cn1)*; αMeF = C[C@](N)(Cc1ccccc1)C(=O)O; αMeL = CC(C)C[C@](C)(N)C(=O)O; cTA = not defined here; AEEA = NCCOCCOCC(=O)O; Aib = CC(C)(N)C(=O)O

The chains are these.
T1: human GIP receptor (human, UniProt P48546 22-466)
T1 construct: whole, on cells; Used as crude membranes of stably transfected CHO cells; also called hGIPR
T1 sequence (looked up): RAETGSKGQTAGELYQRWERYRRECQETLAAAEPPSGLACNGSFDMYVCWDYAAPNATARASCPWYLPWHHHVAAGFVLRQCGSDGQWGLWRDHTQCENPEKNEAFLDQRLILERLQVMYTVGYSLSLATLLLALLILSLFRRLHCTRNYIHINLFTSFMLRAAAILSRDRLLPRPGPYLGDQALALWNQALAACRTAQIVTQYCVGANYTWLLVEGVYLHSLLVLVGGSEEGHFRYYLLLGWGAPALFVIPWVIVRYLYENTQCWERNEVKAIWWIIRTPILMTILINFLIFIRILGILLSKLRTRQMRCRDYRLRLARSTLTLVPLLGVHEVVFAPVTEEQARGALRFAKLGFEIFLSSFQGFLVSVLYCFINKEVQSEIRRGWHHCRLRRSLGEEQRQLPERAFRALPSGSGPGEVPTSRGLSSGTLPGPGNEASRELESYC

B1: Example 105 (peptide)
peptide: [Desaminohistidyl][Aib]EGTFTSDYSILLDKK([AEEA-AEEA-γGlu-C20 diacid])AQ[Aib]AFIEYLIEGGPSSGAPPPS-NH2
modifications: also: reversed amide ψ[NHCO] between residues 1 and 2
B2: Example 120 (peptide)
peptide: Y[Aib][cTA]GT[αMeF]TSDYSI[αMeL]LDEK([AEEA-AEEA-γGlu-C20 diacid])AQ[Aib]AFIEYLIEGGPSSGAPPPS-NH2
modifications: reading uncertain
B3: Example 117 (peptide)
peptide: Y[Aib]EGT[αMeF]TSDYSI[Aib]LDEK([AEEA-AEEA-γGlu-C20 diacid])AQ[Aib]AFIEYLIEGGPSSGAPPPS-NH2
modifications: N-terminus assumed
SMILES: CC[C@H](C)[C@H](NC(=O)[C@H](CC(C)C)NC(=O)[C@H](Cc1ccc(O)cc1)NC(=O)[C@H](CCC(=O)O)NC(=O)[C@@H](NC(=O)[C@H](Cc1ccccc1)NC(=O)[C@H](C)NC(=O)C(C)(C)NC(=O)[C@H](CCC(N)=O)NC(=O)[C@H](C)NC(=O)[C@H](CCCCNC(=O)COCCOCCNC(=O)COCCOCCNC(=O)CC[C@H](NC(=O)CCCCCCCCCCCCCCCCCCC(=O)O)C(=O)O)NC(=O)[C@H](CCC(=O)O)NC(=O)[C@H](CC(=O)O)NC(=O)[C@H](CC(C)C)NC(=O)C(C)(C)NC(=O)[C@@H](NC(=O)[C@H](CO)NC(=O)[C@H](Cc1ccc(O)cc1)NC(=O)[C@H](CC(=O)O)NC(=O)[C@H](CO)NC(=O)[C@@H](NC(=O)[C@](C)(Cc1ccccc1)NC(=O)[C@@H](NC(=O)CNC(=O)[C@H](CCC(=O)O)NC(=O)C(C)(C)NC(=O)[C@@H](N)Cc1ccc(O)cc1)[C@@H](C)O)[C@@H](C)O)[C@@H](C)CC)[C@@H](C)CC)C(=O)N[C@@H](CCC(=O)O)C(=O)NCC(=O)NCC(=O)N1CCC[C@H]1C(=O)N[C@@H](CO)C(=O)N[C@@H](CO)C(=O)NCC(=O)N[C@@H](C)C(=O)N1CCC[C@H]1C(=O)N1CCC[C@H]1C(=O)N1CCC[C@H]1C(=O)N[C@@H](CO)C(N)=O
B4: Example 93 (peptide)
peptide: Y[Aib]EGT[αMeF]TSDYSILK([AEEA-AEEA-γGlu-C20 diacid])DKIAQ[Aib]AFIEYLIEGG-NH2
modifications: N-terminus assumed
SMILES: CC[C@H](C)[C@H](NC(=O)[C@H](CCCCN)NC(=O)[C@H](CC(=O)O)NC(=O)[C@H](CCCCNC(=O)COCCOCCNC(=O)COCCOCCNC(=O)CC[C@H](NC(=O)CCCCCCCCCCCCCCCCCCC(=O)O)C(=O)O)NC(=O)[C@H](CC(C)C)NC(=O)[C@@H](NC(=O)[C@H](CO)NC(=O)[C@H](Cc1ccc(O)cc1)NC(=O)[C@H](CC(=O)O)NC(=O)[C@H](CO)NC(=O)[C@@H](NC(=O)[C@](C)(Cc1ccccc1)NC(=O)[C@@H](NC(=O)CNC(=O)[C@H](CCC(=O)O)NC(=O)C(C)(C)NC(=O)[C@@H](N)Cc1ccc(O)cc1)[C@@H](C)O)[C@@H](C)O)[C@@H](C)CC)C(=O)N[C@@H](C)C(=O)N[C@@H](CCC(N)=O)C(=O)NC(C)(C)C(=O)N[C@@H](C)C(=O)N[C@@H](Cc1ccccc1)C(=O)N[C@H](C(=O)N[C@@H](CCC(=O)O)C(=O)N[C@@H](Cc1ccc(O)cc1)C(=O)N[C@@H](CC(C)C)C(=O)N[C@H](C(=O)N[C@@H](CCC(=O)O)C(=O)NCC(=O)NCC(N)=O)[C@@H](C)CC)[C@@H](C)CC
B5: Example 106 (peptide)
peptide: [Desaminohistidyl][Aib]EGTFTSDYSILLDKK([AEEA-AEEA-γGlu-C20 diacid])AQ[Aib]AFIEYLIEGGPSSGAPPPS-NH2
SMILES: CC[C@H](C)[C@H](NC(=O)[C@H](CC(C)C)NC(=O)[C@H](Cc1ccc(O)cc1)NC(=O)[C@H](CCC(=O)O)NC(=O)[C@@H](NC(=O)[C@H](Cc1ccccc1)NC(=O)[C@H](C)NC(=O)C(C)(C)NC(=O)[C@H](CCC(N)=O)NC(=O)[C@H](C)NC(=O)[C@H](CCCCNC(=O)COCCOCCNC(=O)COCCOCCNC(=O)CC[C@H](NC(=O)CCCCCCCCCCCCCCCCCCC(=O)O)C(=O)O)NC(=O)[C@H](CCCCN)NC(=O)[C@H](CC(=O)O)NC(=O)[C@H](CC(C)C)NC(=O)[C@H](CC(C)C)NC(=O)[C@@H](NC(=O)[C@H](CO)NC(=O)[C@H](Cc1ccc(O)cc1)NC(=O)[C@H](CC(=O)O)NC(=O)[C@H](CO)NC(=O)[C@@H](NC(=O)[C@H](Cc1ccccc1)NC(=O)[C@@H](NC(=O)CNC(=O)[C@H](CCC(=O)O)NC(=O)C(C)(C)NC(=O)CCc1c[nH]cn1)[C@@H](C)O)[C@@H](C)O)[C@@H](C)CC)[C@@H](C)CC)C(=O)N[C@@H](CCC(=O)O)C(=O)NCC(=O)NCC(=O)N1CCC[C@H]1C(=O)N[C@@H](CO)C(=O)N[C@@H](CO)C(=O)NCC(=O)N[C@@H](C)C(=O)N1CCC[C@H]1C(=O)N1CCC[C@H]1C(=O)N1CCC[C@H]1C(=O)N[C@@H](CO)C(N)=O
B6: Example 91 (peptide)
peptide: YXXGTFTSDYSILLDKKAQXAFIEYLIEGGPSSGAPPPS
modifications: Aib2; γ-Glu3; K17((2-[2-(2-Amino-ethoxy)-ethoxy]-acetyl)2-(γ-Glu)-CO-(CH2)18-CO2H); Aib20; C-terminal NH2
B7: Example 107 (peptide)
peptide: B6 peptide with Y1X, X3E
modifications: DesTyr1; Aib2; K17((2-[2-(2-Amino-ethoxy)-ethoxy]-acetyl)2-(γ-Glu)-CO-(CH2)18-CO2H); Aib20; C-terminal NH2
B8: Example 100 (peptide)
peptide: YXEGTXTSDYSIXLDEKAQXAFIEYLIEGG
modifications: Aib2; αMeF6; αMeL13; K17((2-[2-(2-Amino-ethoxy)-ethoxy]-acetyl)2-(γ-Glu)-CO-(CH2)18-CO2H); Aib20; C-terminal NH2
B9: Example 104 (peptide)
peptide: B8 peptide with A21E
modifications: Aib2; αMeF(2F)6; αMeL13; K17((2-[2-(2-Amino-ethoxy)-ethoxy]-acetyl)2-(γ-Glu)-CO-(CH2)16-CO2H); Aib20; C-terminal NH2
B10: Example 103 (peptide)
peptide: B8 peptide with A21E
modifications: Aib2; αMeF(2F)6; αMeL13; K17((2-[2-(2-Amino-ethoxy)-ethoxy]-acetyl)2-(γ-Glu)-CO-(CH2)18-CO2H); Aib20; C-terminal NH2
B11: Example 99 (peptide)
peptide: B8 peptide with E16K
modifications: Aib2; αMeF6; αMeL13; K17((2-[2-(2-Amino-ethoxy)-ethoxy]-acetyl)2-(γ-Glu)-CO-(CH2)18-CO2H); Aib20; C-terminal NH2
B12: Example 101 (peptide)
peptide: Y[Aib]EGT[αMePhe(2-F)]TSDYSI[Aib]LDEK([AEEA-AEEA-γGlu-C20 diacid])AQ[Aib]AFIEYLIEGG-NH2
modifications: N-terminus assumed
SMILES: CC[C@H](C)[C@H](NC(=O)[C@H](CC(C)C)NC(=O)[C@H](Cc1ccc(O)cc1)NC(=O)[C@H](CCC(=O)O)NC(=O)[C@@H](NC(=O)[C@H](Cc1ccccc1)NC(=O)[C@H](C)NC(=O)C(C)(C)NC(=O)[C@H](CCC(N)=O)NC(=O)[C@H](C)NC(=O)[C@H](CCCCNC(=O)COCCOCCNC(=O)COCCOCCNC(=O)CC[C@H](NC(=O)CCCCCCCCCCCCCCCCCCC(=O)O)C(=O)O)NC(=O)[C@H](CCC(=O)O)NC(=O)[C@H](CC(=O)O)NC(=O)[C@H](CC(C)C)NC(=O)C(C)(C)NC(=O)[C@@H](NC(=O)[C@H](CO)NC(=O)[C@H](Cc1ccc(O)cc1)NC(=O)[C@H](CC(=O)O)NC(=O)[C@H](CO)NC(=O)[C@@H](NC(=O)[C@](C)(Cc1ccccc1F)NC(=O)[C@@H](NC(=O)CNC(=O)[C@H](CCC(=O)O)NC(=O)C(C)(C)NC(=O)[C@@H](N)Cc1ccc(O)cc1)[C@@H](C)O)[C@@H](C)O)[C@@H](C)CC)[C@@H](C)CC)C(=O)N[C@@H](CCC(=O)O)C(=O)NCC(=O)NCC(N)=O

For the first experiment, the target named is T2, human GLP-1 receptor (human, UniProt P43220 24-463).
T2 construct: whole, on cells; Used as crude membranes of stably transfected HEK293 cells; also called hGLP1R; hGLP-1R
Nature of the experiment: SPA, [125I]-GLP-1 displacement, hGLP-1R membranes.
By Ki is commonly meant a dissociation constant, usually derived from enzyme kinetics or from competition with a known ligand. B1 displayed an inhibitory constant (Ki) of 0.871 nM.

B2 returned a Ki of 11.7 nM.

For B3, the affinity, expressed as Ki, was 6.96 nM.

The molecule B4 yielded an inhibitory constant (Ki) of 1.89 nM. This Ki is about 3.7-fold lower than that of the molecule before.

B5 returned a Ki of 1.2 nM.

Molecule B6 showed a Ki of 5.23 nM. Against the preceding molecule, the Ki is about 4.4-fold higher.

On to B7, for which the inhibition constant (Ki) was 0.867 nM.

The molecule B8 showed a Ki of 4.13 nM.

For B9, the Ki was 3.91 nM.

The molecule B10 registered a Ki of 6.68 nM.

As for B11, the Ki stood at 1.15 nM. Compared with the last molecule, the Ki is about 5.8-fold lower.

B12 yielded an inhibition constant (Ki) of 8.1 nM.

A further experiment addresses T1, human GIP receptor. Nature of the experiment: SPA, [125I]-GIP displacement, hGIPR membranes.
Consider B1, for which affinity was put at a Ki of 0.119 nM.

As for B2, the inhibition constant (Ki) came to 0.11 nM.

With B3, the affinity, expressed as Ki, was 0.0497 nM.

Molecule B4 showed a Ki of 0.0859 nM.

Consider B5, for which the inhibitory constant (Ki) amounted to 0.179 nM.

For the molecule B6, the Ki was determined as 1.8 nM. Compared with the last molecule, the Ki is about 10-fold higher.

In turn, B7 had a Ki of 0.0425 nM.

For B8, the inhibitory constant (Ki) came out at 0.115 nM. This Ki is about 2.7-fold higher than that of the molecule before.

Regarding B9, the inhibition constant (Ki) was determined as 0.0565 nM.

The molecule B10 yielded an inhibition constant (Ki) of 0.0645 nM.

B11 returned an inhibitory constant (Ki) of 0.027 nM.

In turn, B12 gave a Ki of 0.0953 nM.

A further experiment deals with T3, human glucagon receptor (human, UniProt P47871 26-477).
T3 construct: whole, on cells; Used as crude membranes of stably transfected HEK293 cells; also called hGcgR; hGLcgR
T3 sequence (P47871 26-477): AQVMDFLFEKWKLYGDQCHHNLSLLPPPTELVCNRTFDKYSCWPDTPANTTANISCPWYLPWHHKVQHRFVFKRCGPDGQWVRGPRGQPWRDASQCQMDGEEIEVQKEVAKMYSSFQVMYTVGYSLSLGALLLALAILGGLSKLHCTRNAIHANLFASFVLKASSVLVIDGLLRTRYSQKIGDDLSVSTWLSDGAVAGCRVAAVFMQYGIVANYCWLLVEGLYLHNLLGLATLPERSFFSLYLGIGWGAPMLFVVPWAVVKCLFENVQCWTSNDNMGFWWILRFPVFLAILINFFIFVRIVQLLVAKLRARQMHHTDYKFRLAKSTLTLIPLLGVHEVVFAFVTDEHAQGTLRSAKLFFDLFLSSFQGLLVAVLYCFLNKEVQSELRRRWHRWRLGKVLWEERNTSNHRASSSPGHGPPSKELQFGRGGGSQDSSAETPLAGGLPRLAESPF
Nature of the experiment: SPA, [125I]-Gcg displacement, hGcgR membranes.
In turn, B1 gave an inhibitory constant (Ki) of 20.4 nM.

B2 registered an inhibition constant Ki of 93.6 nM.

In turn, B3 had a Ki of 192 nM.

B4 yielded an inhibition constant Ki of 15.7 nM.

Molecule B5 came in with a Ki of 515 nM.

B6 had a Ki of 540 nM.

Molecule B7 registered an inhibition constant Ki of 303 nM.

Turning to B8, affinity was put at a Ki of 44 nM. Against the preceding molecule, the Ki is about 6.9-fold lower.

In turn, B9 had a Ki of 123 nM. This Ki lies about 2.8-fold higher than the previous one.

B10 registered an inhibition constant Ki of 40.3 nM. This Ki is about 3.1-fold lower than that of the molecule before.

Turning to B11, the inhibition constant Ki came out at 23.6 nM.

Turning to B12, the affinity corresponds to a Ki of 117 nM.
